Reference: patent US20180273613A1 (SAMSUNG ELECTRONICS, published 2018)
One block for each binder: values may come before it.

Assays:
[1] = molecular target: T1, recombinant hAng2 (C-His, R&D Systems) (human, UniProt O15123 19-496); assay: SPR, BIAcore T100; hAng2 (C-His) captured on anti-His CM5 chip, antibody flowed
T1 construct: Bought protein (R&D Systems), captured on an anti-His chip in SPR; also called human Ang2 protein; Angiopoietin-2; not shown: C-terminal His tag
T1 sequence: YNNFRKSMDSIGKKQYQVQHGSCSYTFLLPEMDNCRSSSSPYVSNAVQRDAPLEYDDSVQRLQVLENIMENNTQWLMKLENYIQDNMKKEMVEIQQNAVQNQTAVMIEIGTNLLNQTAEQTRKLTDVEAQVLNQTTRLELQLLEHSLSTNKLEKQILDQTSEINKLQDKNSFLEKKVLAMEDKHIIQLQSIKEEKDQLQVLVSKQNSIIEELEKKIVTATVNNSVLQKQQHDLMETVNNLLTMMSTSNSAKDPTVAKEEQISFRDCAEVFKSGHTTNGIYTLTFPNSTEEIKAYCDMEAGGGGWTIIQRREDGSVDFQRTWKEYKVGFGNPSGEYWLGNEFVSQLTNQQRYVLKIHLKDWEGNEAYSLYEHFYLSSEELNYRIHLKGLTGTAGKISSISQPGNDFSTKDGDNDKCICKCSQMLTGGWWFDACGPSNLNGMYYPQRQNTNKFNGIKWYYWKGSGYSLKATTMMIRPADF
Experimental: The binding affinity (KD values) of the antibodies to human Ang2 protein was measured by an SPR method using a BIAcore T100 (GE Healthcare). 25 μg/ml anti-His antibody was immobilized on a CM5 sensor chip (GE healthcare) using a pH 5.0 acetate solution and an amine coupling kit (GE Healthcare). 6 μg/ml of a recombinant hAng2 (C-His, R&D Systems) protein was flowed onto the chip to be captured at 100 to 200 RU levels.

BSA [2] = molecular target: T2, BSA (bovine, UniProt P02769); assay: Complex ELISA: BSA coated (4 µg/ml), FLAG-Ang2 0.25 µg/ml and 10D6 2 µg/ml, Ang2 on the plate shown indirectly by bound 10D6 (anti-mouse IgG-HRP, OD450)
T2 construct: commercial preparation, not further described; also called Bovine serum albumin; BSA (Sigma)
Experimental: (§1) A 96-well MaxiSorp™ flat-bottom plate (Nunc) was coated with 4 μg/ml of Tie2-Fc (R&D systems) or BSA (Sigma). Then, the plate was washed five times with 0.05% (v/v) Tween-20-containing PBS (Phosphate Buffer Saline) and blocked with 1% (v/v) BSA (Bovine serum albumin; Sigma)-containing PBS at a room temperature for 2 hours. 0.25 μg/ml of Ang2 and 2 μg/ml of 10D6 antibody were added to each well of the plate, which was allowed to react at a room temperature for 2 hours and then washed five times with PBST. After that, an anti-mouse IgG antibody (Sigma) conjugated with HRP diluted in 1% (v/v) BSA-containing PBS at a ratio of 1:5,000 (v/v) was added in an amount of 100 μl to each well to react at a room temperature for 1 hour and then, the plate was washed five times with PBST. Lastly, 100 μl (microliter) of TMB substrate (Cell Signaling) was added to each well of the plate to induce color development for 3 min. and then, the reaction was ceased by the addition of 100 μl of Stop solution (Cell Signaling) and OD450 values were measured on a plate reader (Molecular Devices).

BSA [3] = molecular target: T2, BSA; assay: Complex ELISA: BSA coated (4 µg/ml), 10D6 2 µg/ml, anti-mouse IgG-HRP, OD450
Experimental: as §1

hTie2-Fc (R&D Systems) = molecular target: T3, hTie2-Fc (R&D Systems) (human, UniProt Q02763 23-745); assay: Complex ELISA: Tie2-Fc coated (4 µg/ml), 10D6 2 µg/ml without Ang2, anti-mouse IgG-HRP, OD450
T3 construct: Bought fusion protein, coated on the plate at 4 ug/ml; also called hTie-2/Fc fusion protein; not shown: Fc of human IgG1
Experimental: as §1

T2 sequence (P02769 25-607 limits assumed): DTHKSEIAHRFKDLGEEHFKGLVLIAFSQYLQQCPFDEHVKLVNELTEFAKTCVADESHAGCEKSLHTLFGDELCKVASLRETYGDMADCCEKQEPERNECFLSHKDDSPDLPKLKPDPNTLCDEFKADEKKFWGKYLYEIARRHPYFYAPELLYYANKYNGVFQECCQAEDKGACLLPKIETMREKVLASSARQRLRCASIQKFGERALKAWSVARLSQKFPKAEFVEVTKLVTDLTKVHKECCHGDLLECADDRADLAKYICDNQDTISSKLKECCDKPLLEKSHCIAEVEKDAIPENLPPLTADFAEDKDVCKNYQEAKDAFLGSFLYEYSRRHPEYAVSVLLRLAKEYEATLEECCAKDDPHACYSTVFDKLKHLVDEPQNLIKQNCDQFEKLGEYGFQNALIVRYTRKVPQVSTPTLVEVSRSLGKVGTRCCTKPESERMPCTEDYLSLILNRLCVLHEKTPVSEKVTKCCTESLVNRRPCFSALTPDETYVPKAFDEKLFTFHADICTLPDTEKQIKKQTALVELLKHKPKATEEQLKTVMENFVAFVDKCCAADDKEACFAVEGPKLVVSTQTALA
T3 sequence (Q02763 23-745 limits assumed): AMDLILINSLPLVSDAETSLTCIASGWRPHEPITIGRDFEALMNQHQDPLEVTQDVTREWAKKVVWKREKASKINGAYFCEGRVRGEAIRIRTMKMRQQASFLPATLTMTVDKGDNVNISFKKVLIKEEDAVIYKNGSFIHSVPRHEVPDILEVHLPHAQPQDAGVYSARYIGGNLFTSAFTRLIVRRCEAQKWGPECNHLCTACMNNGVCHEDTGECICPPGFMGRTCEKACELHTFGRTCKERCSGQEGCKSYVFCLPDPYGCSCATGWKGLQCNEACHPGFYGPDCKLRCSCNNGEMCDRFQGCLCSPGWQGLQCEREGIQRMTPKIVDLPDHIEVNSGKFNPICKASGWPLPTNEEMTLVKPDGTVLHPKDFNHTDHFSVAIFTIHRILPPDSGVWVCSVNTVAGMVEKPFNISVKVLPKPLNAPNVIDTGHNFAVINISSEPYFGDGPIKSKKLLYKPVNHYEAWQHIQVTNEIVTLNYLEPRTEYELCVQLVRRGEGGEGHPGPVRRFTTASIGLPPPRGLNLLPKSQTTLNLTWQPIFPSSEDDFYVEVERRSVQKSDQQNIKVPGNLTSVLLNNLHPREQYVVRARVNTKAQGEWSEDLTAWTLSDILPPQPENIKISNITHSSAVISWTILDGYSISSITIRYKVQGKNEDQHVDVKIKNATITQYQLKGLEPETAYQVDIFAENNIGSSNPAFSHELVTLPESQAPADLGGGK

Kd [1]: 0.0454 nM
kon [1]: 496000 M⁻¹ s⁻¹
B1: h10D6-OPTI-65 (antibody, V domains shown)
VH: QVQLQESGPGLVKPSETLSLTCAVSGYSITSDYAWNWIRQPPGKGLEWMGKISYSGKTDYNPSLKSRSTISRDTSKNQFSLKLSSVTAADTAVYYCARGNFEGAMDYWGQGTLVTVSS
VL: DIQMTQSPSSLSASVGDRVTITCKASQSVSNDVAWYQQKPGKAPKLLIYYASIPYPGVPSRFSGSGSGTDFTLTISSLQPEDFATYYCQQDYSSPWTFGQGTKLEIK
notes: also called HU2-6.6 / 10D6_VL-Hu1-2.4

binding result (BSA [2]): no binding (tested: 0.25 µg/ml)
B2: FLAG-tagged hAng2 (ligand)
chain: YNNFRKSMDSIGKKQYQVQHGSCSYTFLLPEMDNCRSSSSPYVSNAVQRDAPLEYDDSVQRLQVLENIMENNTQWLMKLENYIQDNMKKEMVEIQQNAVQNQTAVMIEIGTNLLNQTAEQTRKLTDVEAQVLNQTTRLELQLLEHSLSTNKLEKQILDQTSEINKLQDKNSFLEKKVLAMEDKHIIQLQSIKEEKDQLQVLVSKQNSIIEELEKKIVTATVNNSVLQKQQHDLMETVNNLLTMMSTSNSAKDPTVAKEEQISFRDCAEVFKSGHTTNGIYTLTFPNSTEEIKAYCDMEAGGGGWTIIQRREDGSVDFQRTWKEYKVGFGNPSGEYWLGNEFVSQLTNQQRYVLKIHLKDWEGNEAYSLYEHFYLSSEELNYRIHLKGLTGTAGKISSISQPGNDFSTKDGDNDKCICKCSQMLTGGWWFDACGPSNLNGMYYPQRQNTNKFNGIKWYYWKGSGYSLKATTMMIRPADF
notes: not shown: FLAG tag

binding result (BSA [3]): no binding (tested: 2 µg/ml)
binding result (hTie2-Fc (R&D Systems)): no binding (tested: 2 µg/ml)
B3: SAIT-ANG2-AB-m10D6 (antibody, V domains shown)
VH: DVQLQESGPDLVKPSQSLSLTCTVTGYSITSDYAWNWIRQFPGNKLEWMGYINYSGNTDYNPSLKSRSSITRDTSKNQFFLQLNSVTTGDTATYYCARGNFEGAMDYWGQGTSVTVSS
VL: SIVMTQTPKFLLVSAGDRVTITCKASQSVSNDVAWYQQKPGQSPKLLIYYASNRYPGVPDRFTGSGYGTDFTFTISTVQAEDLAVYFCQQDYSSPWTFGGGTKLEIK
notes: Mouse monoclonal antibody from hybridoma KCLRF-BP-00295, purified on Protein G and detected with anti-mouse IgG; the mouse constant regions are not; also called mouse antibody 10D6; mouse anti-Ang2 antibody 10D6
